In US7811569:

Assays:
[1] = biological target: native MSP-3 antigen of Plasmodium falciparum clone 3D7 schizonts and merozoites (Plasmodium falciparum); assay: cell-based or functional assay
[2] = biological target: native MSP-3 antigen of Plasmodium falciparum clone 3D7 schizonts and merozoites (Plasmodium falciparum); assay: indirect immunofluorescence on 3D7 mature schizont infected RBCs; antibody at 3 µg/ml in ADCI
[3] = biological target: native MSP-3 antigen of Plasmodium falciparum clone 3D7 schizonts and merozoites (Plasmodium falciparum); assay: indirect immunofluorescence on 3D7 mature schizont infected RBCs; antibody at 15 µg/ml in ADCI

B1: RAM1 IgG3 (antibody, V domains shown)
VH: QVQLVQSGGGVVQPGRSLRLSCAASGFTFSSYAMHWVRQAPGKGLEWVAVISYDGSNKYYADSVKGRFTISRDNSKNTLYLQMSSLRAEDTAVYYCVKGASSWSTGTLVTVSS
VL: DIVMMQSPATLSASVGDRVTITCRASQSISSWLAWYQQKPGKAPNLLIYKASSLESGVPSRFSGSGSGTEFTLTISSLQPDDFATYYCQQYKSFPYTFGQGTRLEIKR
B1 showed an SGI % (specific growth inhibitory index, ADCI with monocytes, 3 µg/ml) [1] of 23%, an SGI % (specific growth inhibitory index, ADCI with monocytes, 15 µg/ml) [1] of 49% and an IFAT in ADCI (endpoint titre of indirect immunofluorescence) [2] of 10 titre. The IFAT in ADCI (endpoint titre of indirect immunofluorescence) [3] was 50 titre.
